Two substances from paper PMC12615485, “New dengue virus inhibitors targeting NS3-NS5 interaction identified by in silico screening” (Frontiers in Microbiology, 2025) can be followed below.

The target in assay [1] is NHS-NS5(270-900): 6His-NS5 RdRp(270-900) labelled with RED-NHS (DENV-2 NGC strain). Put plainly: MST.
Assay [2] has as its target 6His-NS5 RdRp(270-900) of DENV-2 NGC strain (DENV-2 NGC strain). Put plainly: ELISA. On the technique in general: ELISA stands for enzyme-linked immunosorbent assay.

In general, Kd refers to the concentration at which binding is half-saturated. A low value points to tighter binding. By IC50 is commonly meant the concentration needed to halve the response being measured.

In turn, “6His-NS3(177-618), helicase portion of NS3 (domain or fragment)” came in with a dissociation constant Kd in assay [1] of 7.2 µM.
NS3(566-585) peptide of DENV-2: the IC50 in assay [2] stood at 127 µM.
